Experimental findings from paper PMC3661714 (Circulation, 2013) are described below.

For orientation: tissue uptake means the percentage of the injected dose found per gram of tissue.

The conditions of data set [1]: B6 mice, injected i.v., n = 5, R^2 = 0.95, mean±SEM.
For data set [2], the target named is T1, plasma transglutaminase factor XIII (FXIII) (Mus musculus, UniProt Q8BH61).
T1 sequence (Q8BH61 1-732): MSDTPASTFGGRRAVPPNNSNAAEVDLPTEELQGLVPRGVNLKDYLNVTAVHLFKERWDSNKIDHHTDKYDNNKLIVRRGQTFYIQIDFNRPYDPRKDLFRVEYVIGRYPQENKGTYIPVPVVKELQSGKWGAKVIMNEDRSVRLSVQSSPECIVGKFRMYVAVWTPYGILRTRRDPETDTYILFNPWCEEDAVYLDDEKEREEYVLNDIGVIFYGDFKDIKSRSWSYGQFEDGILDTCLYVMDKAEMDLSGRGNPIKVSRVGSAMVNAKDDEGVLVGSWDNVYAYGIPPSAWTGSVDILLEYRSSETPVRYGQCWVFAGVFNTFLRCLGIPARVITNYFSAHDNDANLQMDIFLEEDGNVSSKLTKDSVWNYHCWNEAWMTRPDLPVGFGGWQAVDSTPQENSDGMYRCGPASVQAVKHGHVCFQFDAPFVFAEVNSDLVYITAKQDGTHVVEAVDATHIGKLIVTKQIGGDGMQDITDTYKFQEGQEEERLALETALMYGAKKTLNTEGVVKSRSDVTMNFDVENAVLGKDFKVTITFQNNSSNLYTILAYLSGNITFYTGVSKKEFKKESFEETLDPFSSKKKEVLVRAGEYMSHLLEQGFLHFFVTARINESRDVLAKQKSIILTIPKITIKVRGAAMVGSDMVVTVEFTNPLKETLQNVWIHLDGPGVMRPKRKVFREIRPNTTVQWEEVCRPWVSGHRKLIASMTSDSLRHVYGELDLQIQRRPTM
The data set can be described thus: Scintillation counting of 18F-FXIII signal in hearts with or without MI. The class given is in vivo. As to conditions: p<0.05.

The nature of another data set: in vivo. As to conditions: B6, mouse, iv, SEM.

Starred links: 1 amine or outer side, 2 acyl side, 3 side chain; linkers in the order of their positions; H or OH if unused. Residues, ends and D or L forms follow the SMILES beside them. Groups on a side chain read outwards from the residue. *: point of attachment. X1 = FCCOC1CCCC2C(=CNN=C2c2ccc(CN*)cc2)CC1; Glutaryl = O=C(CCCC(=O)[*:2])[*:1]

In the case of `CC(=O)NCC(=O)N[C@@H](CC(N)=O)C(=O)N[C@@H](CCC(N)=O)C(=O)N[C@@H](CCC(=O)O)C(=O)N[C@@H](CCC(N)=O)C(=O)N[C@H](C(=O)N[C@@H](CO)C(=O)N1CCC[C@H]1C(=O)N[C@@H](CC(C)C)C(=O)N[C@H](C(=O)N[C@@H](CC(C)C)C(=O)N[C@@H](CC(C)C)C(=O)N[C@@H](CCCCNC(=O)CCCC(=O)NCc1ccc(C2=NNC=C3CCC(OCCF)CCCC32)cc1)C(=O)N[C@@H](Cc1c[nH]c2ccccc12)C(=O)O)[C@@H](C)O)C(C)C` (stereo partly drawn) [18F-FXIII] (Ac-GNQEQVSPLTLLK([Glutaryl-X1])W-OH; N-terminus and C-terminus assumed), the blood half-life in data set [1] is 13.2 ± 0.94 min. In addition, the “Signal intensity in hearts of FXIII−/− mice with MI (specificity)” value in data set [2] (day 4 after MI, comparable to non-infarcted wild-type B6 and FXIII−/− mice) is recorded as “significantly lower”. Moreover, the “18F-FXIII signal in the heart, B6 mice with MI compared to control mice” value in data set [2] (day 4 after coronary ligation, n = 4-5 per group) was “significantly higher”. For the same compound, the tissue uptake at 1.25 h came out at 0.49 ± 0.03 %ID/g in the data set “in vivo” (blood); 0.31 ± 0.03 %ID/g in “in vivo” (bone); 0.17 ± 0.01 %ID/g in “in vivo” (fat); 0.23 ± 0.03 %ID/g in the data set “in vivo” (heart); 0.25 ± 0.04 %ID/g in “in vivo” (intestines); 1.26 ± 0.06 %ID/g in the data set “in vivo” (kidney). For the same compound, the tissue uptake at 1.25 h turned out to be 2.83 ± 0.22 %ID/g in “in vivo” (liver); 0.6 ± 0.1 %ID/g in the data set “in vivo” (lymph node); 0.15 ± 0.01 %ID/g in “in vivo” (muscle); 0.31 ± 0.05 %ID/g in “in vivo” (skin); 0.49 ± 0.05 %ID/g in the data set “in vivo” (spleen); 0.41 ± 0.03 %ID/g in the data set “in vivo” (tail).
